Target: purified muscle actin filaments (UniProt P68135 1-377)

Kd: ~20 µM
B1: recombinant Rng2p calponin homology domain (domain or fragment)
chain: MDVNVGLSRLQSQAGAPVGTKGSNTRLAAKQRETLQAYDYLCRVDEAKKWIEECLGTDLGPTSTFEQSLRNGVVLALLVQKFQPDKLIKIFYSNELQFRHSDNINKFLDFIHGIGLPEIFHFELTDIYEGKNLPKVIYCIHALSYFLSMQDLAPPLIKSDENLSFTDEDVSIIVRRLRQSNVILPNFKAL
